B1: POLD4 (parent)
chain: ITDSYPVVKRREGPAGHSKGELAP
B2: MYOZ1 (parent)
chain: FSDSSMDHFQKFLPTVGGQLGTAG
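Further: lentivirally expressed fusions sorted by FACS into six bins by GFP to DsRed ratio, PSI derived from sequencing read proportions per bin multiplied by bin number.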

The variants in one series derive from B1. Kind of series: protein stability index of a GFP-peptide fusion (GPS, HEK-293T) (PSI 1-6); higher = more stable. The settings on record: c terminus: a fixed tail appended.
Regarding ITDSYPVVKRQEGPAGHSKGELAP [R11Q], the protein stability index was found to be 4.37.
For ITDSYPVVKREEGPAGHSKGELAP [R11E], the protein stability index turned out to be 5.14.
ITDSYPVVKRIEGPAGHSKGELAP [R11I]: the protein stability index amounted to 3.76.
Take ITDSYPVVKRRCGPAGHSKGELAP [E12C]: the protein stability index came to 2.1.
Consider ITDSYPVVKRRFGPAGHSKGELAP [E12F], for which the protein stability index is 1.86.
On the same count and under the same terms, then ITDSYPVVKRRAGPAGHSKGELAP [E12A], with 2.52; and ITDSYPVVKRRDGPAGHSKGELAP [E12D], with 3.08.
For IYDSYPVVKRREGPAGHSKGELAP [T2Y], the protein stability index is 4.27.
For the variant IIDSYPVVKRREGPAGHSKGELAP [T2I], the protein stability index is 4.58.
As for IHDSYPVVKRREGPAGHSKGELAP [T2H], the protein stability index was 4.41.
Regarding IMDSYPVVKRREGPAGHSKGELAP [T2M], the protein stability index amounted to 3.78.
Same read-out and setting: then IGDSYPVVKRREGPAGHSKGELAP [T2G], with 3.61; and IDDSYPVVKRREGPAGHSKGELAP [T2D], with 4.35; and IPDSYPVVKRREGPAGHSKGELAP [T2P], with 3.71.
As to ILDSYPVVKRREGPAGHSKGELAP [T2L], the protein stability index is 4.98.
Turning to IFDSYPVVKRREGPAGHSKGELAP [T2F], the protein stability index came out at 4.27.
As to ISDSYPVVKRREGPAGHSKGELAP [T2S], the protein stability index came to 3.69.
As for IWDSYPVVKRREGPAGHSKGELAP [T2W], the protein stability index came to 3.37.
Regarding IADSYPVVKRREGPAGHSKGELAP [T2A], the protein stability index was determined as 2.43.
As for IVDSYPVVKRREGPAGHSKGELAP [T2V], the protein stability index was determined as 3.36.
LTDSYPVVKRREGPAGHSKGELAP [I1L]: the protein stability index was found to be 3.44.
Take RTDSYPVVKRREGPAGHSKGELAP [I1R]: the protein stability index was 4.81.
In the case of GTDSYPVVKRREGPAGHSKGELAP [I1G], the protein stability index is 4.68.
QTDSYPVVKRREGPAGHSKGELAP [I1Q]: the protein stability index is 4.43.
Consider VTDSYPVVKRREGPAGHSKGELAP [I1V], for which the protein stability index worked out at 4.4.
For the variant YTDSYPVVKRREGPAGHSKGELAP [I1Y], the protein stability index was 2.62.
On the same count and under the same terms, then ATDSYPVVKRREGPAGHSKGELAP [I1A], with 4.82; and DTDSYPVVKRREGPAGHSKGELAP [I1D], with 5.18.
Take TTDSYPVVKRREGPAGHSKGELAP [I1T]: the protein stability index is 4.79.
Consider MTDSYPVVKRREGPAGHSKGELAP [I1M], for which the protein stability index amounted to 2.72.
Same read-out and setting: then STDSYPVVKRREGPAGHSKGELAP [I1S], with 5.09.
On to FTDSYPVVKRREGPAGHSKGELAP [I1F], for which the protein stability index amounted to 1.59.
With CTDSYPVVKRREGPAGHSKGELAP [I1C], the protein stability index turned out to be 4.11.
Regarding HTDSYPVVKRREGPAGHSKGELAP [I1H], the protein stability index is 3.73.
On to PTDSYPVVKRREGPAGHSKGELAP [I1P], for which the protein stability index came to 3.23.
For the variant ITSSYPVVKRREGPAGHSKGELAP [D3S], the protein stability index stood at 2.68.
Still for that read-out and setting: then ITGSYPVVKRREGPAGHSKGELAP [D3G], with 4.07; and ITTSYPVVKRREGPAGHSKGELAP [D3T], with 4.2; and ITMSYPVVKRREGPAGHSKGELAP [D3M], with 3.2.
As to ITWSYPVVKRREGPAGHSKGELAP [D3W], the protein stability index worked out at 1.99.
The same measure, in the same setting: then ITLSYPVVKRREGPAGHSKGELAP [D3L], with 2.46; and ITKSYPVVKRREGPAGHSKGELAP [D3K], with 3.89; and ITFSYPVVKRREGPAGHSKGELAP [D3F], with 3.39.
Regarding ITHSYPVVKRREGPAGHSKGELAP [D3H], the protein stability index stood at 2.97.
Consider ITCSYPVVKRREGPAGHSKGELAP [D3C], for which the protein stability index is 1.78.
On to ITYSYPVVKRREGPAGHSKGELAP [D3Y], for which the protein stability index worked out at 2.74.
In the case of ITISYPVVKRREGPAGHSKGELAP [D3I], the protein stability index was 1.09.
On to ITNSYPVVKRREGPAGHSKGELAP [D3N], for which the protein stability index stood at 2.68.
Still for that read-out and setting: then ITVSYPVVKRREGPAGHSKGELAP [D3V], with 2; and ITDSYPVVKGREGPAGHSKGELAP [R10G], with 4.21; and ITDSYPVVKPREGPAGHSKGELAP [R10P], with 4.68.
As for ITDSYPVVKWREGPAGHSKGELAP [R10W], the protein stability index turned out to be 3.07.
In the case of ITDSYPVVKKREGPAGHSKGELAP [R10K], the protein stability index was found to be 2.39.
Take ITDSYPVVKNREGPAGHSKGELAP [R10N]: the protein stability index amounted to 3.92.
On the same count and under the same terms, then ITDSYPVVKQREGPAGHSKGELAP [R10Q], with 3.8.
Still for that read-out and setting: then ITDSYPVVKLREGPAGHSKGELAP [R10L], with 3.64; and ITDSYPVVKFREGPAGHSKGELAP [R10F], with 3.57.
As to ITDSYPVVKVREGPAGHSKGELAP [R10V], the protein stability index was 3.94.
Take ITDSYPVVKAREGPAGHSKGELAP [R10A]: the protein stability index turned out to be 4.56.
Take ITDSYPVVKTREGPAGHSKGELAP [R10T]: the protein stability index was 3.6.
On to ITDSYPVVKHREGPAGHSKGELAP [R10H], for which the protein stability index was 4.33.
ITDSYPVVKEREGPAGHSKGELAP [R10E]: the protein stability index turned out to be 4.8.
Consider ITDSYPVVKDREGPAGHSKGELAP [R10D], for which the protein stability index was 4.98.
As to ITDSYPVVKCREGPAGHSKGELAP [R10C], the protein stability index stood at 3.79.
As to ITDSYPVVKMREGPAGHSKGELAP [R10M], the protein stability index stood at 3.16.
As to ITDSYPVVKYREGPAGHSKGELAP [R10Y], the protein stability index came out at 4.05.
For the variant ITDSYPVVKIREGPAGHSKGELAP [R10I], the protein stability index was determined as 3.38.
On the same count and under the same terms, then ITDSYPVVKSREGPAGHSKGELAP [R10S], with 3.89; and ITDIYPVVKRREGPAGHSKGELAP [S4I], with 3.51.
As to ITDQYPVVKRREGPAGHSKGELAP [S4Q], the protein stability index turned out to be 3.81.
For the variant ITDNYPVVKRREGPAGHSKGELAP [S4N], the protein stability index was 4.16.
Consider ITDHYPVVKRREGPAGHSKGELAP [S4H], for which the protein stability index came out at 2.67.
As for ITDRYPVVKRREGPAGHSKGELAP [S4R], the protein stability index worked out at 3.87.
ITDTYPVVKRREGPAGHSKGELAP [S4T]: the protein stability index was determined as 2.56.
For ITDYYPVVKRREGPAGHSKGELAP [S4Y], the protein stability index was 2.57.
Consider ITDEYPVVKRREGPAGHSKGELAP [S4E], for which the protein stability index came out at 4.58.
On to ITDDYPVVKRREGPAGHSKGELAP [S4D], for which the protein stability index stood at 5.06.
In the case of ITDPYPVVKRREGPAGHSKGELAP [S4P], the protein stability index is 4.58.

In another series the parent is B2. Described as above. The following applies: c terminus: a fixed tail appended.
FSDSSMDHFQKFLPTVGGQLGTAR [G24R]: the protein stability index is 2.22.
Consider FSDSSMDHFQKFLPTVGGQLGTAI [G24I], for which the protein stability index turned out to be 1.54.
Still for that read-out and setting: then FSDSSMDHFQKFLPTVGGQLGTAW [G24W], with 1.23; and FSDSSMDHFQKFLPTVGGQLGTAK [G24K], with 2.16.
As to FSDSSMDHFQKFLPTVGGQLGTAQ [G24Q], the protein stability index was found to be 1.98.
FSDSSMDHFQKFLPTVGGQLGTAE [G24E]: the protein stability index is 2.54.
As to FSDSSMDHFQKFLPTVGGQLGTAS [G24S], the protein stability index was found to be 1.98.
Still for that read-out and setting: then FSDSSMDHFQKFLPTVGGQLGTAN [G24N], with 2.03; and FSDSSMDHFQKFLPTVGGQLGTAL [G24L], with 2.36.
In the case of FSDSSMDHFQKFLPTVGGQLGTAH [G24H], the protein stability index amounted to 2.33.
For the variant FSDSSMDHFQKFLPTVGGQLGTAV [G24V], the protein stability index was determined as 2.42.
Take FSDSSMDHFQKFLPTVGGQLGTAT [G24T]: the protein stability index came to 1.89.
For the variant FSDSSMDHFQKFLPTVGGQLGTAD [G24D], the protein stability index came to 3.09.
On to FSDSSMDHFQKFLPTVGGQLGTAY [G24Y], for which the protein stability index stood at 1.2.
Same read-out and setting: then FSDSSMDHFQKFLPTVGGQLGTAP [G24P], with 2.25.
Still for that read-out and setting: then FSDSSMDHFQKFLPTVGGQLGTAM [G24M], with 1.92.

The record behind these values is the supplement of paper PMC10567573.
